According to article PMC12546588 (Nature Communications, 2025):

B1: human TRPC3 channel (hTRPC3), WT full length, tetramer in nanodiscs (natural protein, UniProt Q13507 86-921, looked up)
chain: MREKGRRQAVRGPAFMFNDRGTSLTAEEERFLDAAEYGNIPVVRKMLEESKTLNVNCVDYMGQNALQLAVGNEHLEVTELLLKKENLARIGDALLLAISKGYVRIVEAILNHPGFAASKRLTLSPCEQELQDDDFYAYDEDGTRFSPDITPIILAAHCQKYEVVHMLLMKGARIERPHDYFCKCGDCMEKQRHDSFSHSRSRINAYKGLASPAYLSLSSEDPVLTALELSNELAKLANIEKEFKNDYRKLSMQCKDFVVGVLDLCRDSEEVEAILNGDLESAEPLEVHRHKASLSRVKLAIKYEVKKFVAHPNCQQQLLTIWYENLSGLREQTIAIKCLVVLVVALGLPFLAIGYWIAPCSRLGKILRSPFMKFVAHAASFIIFLGLLVFNASDRFEGITTLPNITVTDYPKQIFRVKTTQFTWTEMLIMVWVLGMMWSECKELWLEGPREYILQLWNVLDFGMLSIFIAAFTARFLAFLQATKAQQYVDSYVQESDLSEVTLPPEIQYFTYARDKWLPSDPQIISEGLYAIAVVLSFSRIAYILPANESFGPLQISLGRTVKDIFKFMVLFIMVFFAFMIGMFILYSYYLGAKVNAAFTTVEESFKTLFWSIFGLSEVTSVVLKYDHKFIENIGYVLYGIYNVTMVVVLLNMLIAMINSSYQEIEDDSDVEWKFARSKLWLSYFDDGKTLPPPFSLVPSPKSFVYFIMRIVNFPKCRRRRLQKDIEMGMGNSKSRLNLFTQSNSRVFESHSFNSILNQPTRYQQIMKRLIKRYVLKAQVDKENDEVNEGELKEIKQDISSLRYELLEDKSQATEELAILIHKLSEKLNPSMLRCE
B2: Nanobody 1-25 (VHH)
VHH: QVQLQESGGGSVQSGGSLRLSCAASGDKNYYMGWFRQAPGKEREGVAAIKSDGETRYADSSVTGRFTISQDNAKKTLYLQMTSLKPEDTAMYYCAADRYIGTRWKYVRPEDYSYWGQGTQVTVSS
B3: Nanobody 3-37 (VHH)
VHH: QVQLQESGGGSVQSGGSLRLSCAASGYTYSRSCLGWFRQAPGKERERVATIDSDGSTSYADSVKGRFTISQDNAKNTLYLQMNSLKSEDTAMYYCASKYGSRCQNSLGYMYRGQGTQVTVSS
B4: Nanobody 1-94 (VHH)
VHH: QVQLQESGGGSVQSGGSLRLSCAASGYTYSYSGYCMGWFRQAPGKEREGVATIDGAGNTKYADSVKGRFTISRDNAKKTLYLQMNSLKPEDTAMYYCAARVYSYSSDVDCRPSFTTRFPYSGQGTQVTV

Legend:
cryo-EM structure = molecular target: the molecule itself; experiment: cryo-EM structure
[1] = molecular target: human TRPC3 channel (hTRPC3), WT full length, tetramer in nanodiscs (human, UniProt Q13507); experiment: cryo-EM structure

Binder | stoichiometry N (cryo-EM structure) [subunits] | stoichiometry N [1]
B1 | 4 | –
B2 | – | 4 nanobody molecules per hTRPC3 tetramer
B3 | – | 2 nanobody molecules per hTRPC3 tetramer
B4 | – | 4 nanobody molecules per hTRPC3 tetramer
